Reference: patent US20250066503A1, “CELL INJURY INDUCING THERAPEUTIC DRUG FOR USE IN CANCER THERAPY” (CHUGAI SEIYAKU KABUSHIKI KAISHA, priority 2016, published 2025)

Tests used:
[1] = molecular target: T1, soluble human CD3 epsilon chain (human, UniProt P07766 23-126); experiment: SPR, human CD3 on the chip
T1 construct: also called CD3ε
Procedure: (§1) The activity to bind human CD3 when using hCE115HA (SEQ ID NO: 52) as the H chain variable region and L0000 (SEQ ID NO: 53) as the L-chain variable region was evaluated. This was performed using the molecular form of a single-arm antibody having a single Fab at the Fc region of a human IgG1 heterodimerized by the knobs-into-hole technique.
(§2) The affinity and binding rate constants of an anti-CD3 antibody for an antigen were measured by the single-cycle kinetics method of a surface plasmon resonance assay using Biacore™-T200 (GE Healthcare Japan). HBS-EP+(GE Healthcare Japan) was used for the running buffer, and an amine coupling kit (GE Healthcare Japan) was used to covalently bind human CD3 to the CM4 chip (carboxymethyl dextran-coated chip). The anti-CD3 antibody used as the analyte was prepared at 5 and […] using HBS-EP+. Measurements were carried out by first injecting each of the 5- and 20-g/mL anti-CD3 antibody solutions for three minutes continuously at a flow rate of 20 L/min to allow reaction to take place. Then, the solution was switched to HBS-EP+ and the dissociation phase was measured for 3 minutes. After completion of the dissociation phase measurement, the sensor chip was regenerated by washing with 10 mM Gly-HCl at pH 1.5. Measurement at the concentration of 0 was carried out by performing each of the three-minute HBS-EP+ injections twice successively to allow reaction to take place, and then switching to HBS-EP+ to measure the dissociation phase for 3 minutes. After completion of the dissociation phase measurement, the sensor chip was regenerated by washing with 10 mM Gly-HCl at pH 1.5. A data analysis software exclusively for Biacore, Biacore T200 Evaluation Software Version 1.0, was used to perform kinetic analyses to calculate the binding rate constant (ka), dissociation rate constant (kd), and the rate constant ratio from the obtained sensorgrams.

[2] = molecular target: human CD3 (soluble human CD3ε chain) (Homo sapiens, UniProt P07766); experiment: Affinity for human CD3 by surface plasmon resonance (Biacore T200); format: binding; conditions: for Kd: soluble human CD3ε chain, Table 12
Procedure: as §1, §2
(§3) CDR and FR were determined according to the Kabat definition (Kabat numbering).
First, point mutations were introduced into FR1, FR2, FR3, CDR1, CDR2, and CDR3 of the humanized anti-human CD3ε chain antibody sequence produced in Reference Example 2, hCE115HA-ERY27_HE (SEQ ID NO: 55), to prepare modified antibodies. Next, the affinity of these modified antibodies for the soluble human CD3ε chain was determined.

human GPC3 = human GPC3 (Homo sapiens, UniProt P51654); experiment: Affinity for human GPC3 by surface plasmon resonance (Biacore T200); format: binding; conditions: single-arm antibody; multi-cycle kinetics
Procedure: The activity to bind human GPC3 when using GL4 (SEQ ID NO: 41) and L0000 (SEQ ID NO: 53) as the L-chain variable regions was evaluated. This was performed using the molecular form of a single-arm antibody having a single Fab at the Fc region of a human IgG1 heterodimerized by the knobs-into-hole technique. H0000 (SEQ ID NO: 40) was used for the anti-GPC3 antibody H-chain variable region.
The affinity and binding rate constants of an anti-GPC3 antibody for an antigen were measured by the multi-cycle kinetics method of a surface plasmon resonance assay using Biacore™-T200 (GE Healthcare Japan). HBS-EP+(GE Healthcare Japan) was used for the running buffer, and an amine coupling kit (GE Healthcare Japan) was used to covalently bind Protein A/G to the CM5 chip (carboxymethyl dextran-coated chip). Each anti-GPC3 antibody was prepared so that approximately 100 RU will be captured by Protein A/G. Human GPC3 used as the analyte was prepared at 8, 16, 32, 64, and 128 nM using HBS-EP+. Measurements were carried out by first allowing Protein A/G to capture the antibody solution, and then injecting the human GPC3 solution at a flow rate of […] for three minutes to allow reaction to take place. Then, the solution was switched to HBS-EP+ and the dissociation phase was measured for 15 minutes. After completion of the dissociation phase measurement, the sensor chip was regenerated by washing with 10 mM Gly-HCl at pH 1.5. Measurement at the concentration of 0 was similarly carried out by allowing Protein A/G to capture the antibody solution, performing a three-minute HBS-EP+ injection to allow reaction to take place, and then switching to HBS-EP+ to measure the dissociation phase for 15 minutes. […]
as §3
First, point mutations were introduced into CDR1, CDR2, and CDR3 of the anti-human GPC3 bispecific antibody sequence produced in Reference Example 2, H0000-ERY27_HK (SEQ ID NO: 54), to prepare modified antibodies. Next, the affinity of these modified antibodies for soluble human GPC3 was determined.

[3] = single-arm antibody, single-cycle kinetics

T1 sequence (P07766 23-126 limits assumed): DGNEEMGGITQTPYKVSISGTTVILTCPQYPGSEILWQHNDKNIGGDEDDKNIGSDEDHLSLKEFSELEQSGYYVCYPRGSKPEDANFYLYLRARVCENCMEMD
Chain of human CD3 (soluble human CD3ε chain) (P07766 23-126 limits assumed): as above
Chain of human GPC3 (P51654 25-563 limits assumed): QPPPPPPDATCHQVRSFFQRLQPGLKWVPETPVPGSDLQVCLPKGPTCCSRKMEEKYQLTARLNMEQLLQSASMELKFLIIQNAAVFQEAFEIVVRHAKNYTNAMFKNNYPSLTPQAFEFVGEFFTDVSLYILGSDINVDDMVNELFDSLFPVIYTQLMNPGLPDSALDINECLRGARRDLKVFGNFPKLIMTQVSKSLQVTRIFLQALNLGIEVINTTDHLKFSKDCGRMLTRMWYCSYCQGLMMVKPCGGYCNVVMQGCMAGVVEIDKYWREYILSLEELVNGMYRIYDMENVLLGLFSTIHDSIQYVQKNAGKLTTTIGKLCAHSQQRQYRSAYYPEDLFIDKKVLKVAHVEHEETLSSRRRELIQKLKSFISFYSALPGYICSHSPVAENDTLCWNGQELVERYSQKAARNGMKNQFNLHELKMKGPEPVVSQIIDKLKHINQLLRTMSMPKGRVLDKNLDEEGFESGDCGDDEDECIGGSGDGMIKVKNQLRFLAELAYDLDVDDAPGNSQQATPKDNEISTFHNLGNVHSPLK

B1: rCE115H/rCE115L single-arm antibody (antibody, human IgG1, V domains shown)
VH: EVQLVETGGSLVQPGKSLKLTCATSGFTFSNAWMHWVRQSPEKQLEWVAQIKAKSNNYATYYAESVKGRFTISRDDSKSNIYLQMNSLKEEDTAVYYCRYVHYGAYYGVDAWGQGTSVTVSS
VL: DVVMTQTPVSMSVSLGGQVSISCRSSQSLVHNNGNTYVSWYIQKPSQSPQLLIYKVSNRFSGISDRFSGSGSGTDFTLKISRVEPDDLGVYYCGQGTQDPYTFGAGTKLELK
notes: single Fab on human IgG1 Fc heterodimerized by knobs-into-hole; also called rCE116H/rCE115L
- Kd [1]: 100 nM
- koff [1]: 0.006 s⁻¹
- kon [1]: 59000 M⁻¹ s⁻¹
- Affinity for human CD3 ka [2, 3]: 59000 M⁻¹ s⁻¹
- Affinity for human CD3 kd [2, 3]: 0.006 s⁻¹

B2: CE115HA122-E22Hh//-Hi-Kn010G3/L0000-k0: modified anti-CD3 antibody (antibody)
heavy: QVQLVESGGGVVQPGRSLRLSCAASGFTFSNAWMHWVRQAPGKGLEWVANIKAKSNNYATYYAESVKGRFTISRDDSKNSLYLQMNSLKTEDTAVYYCRYVHYGAYYGVDAWGQGTTVTVSSASTKGPSVFPLAPSSKSTSGGTAALGCLVKDYFPEPVTVSWNSGALTSGVHTFPAVLQSSGLYSLSSVVTVPSSSLGTQTYICNVNHKPSNTKVDKKVEPKSCDKTHTCPPCPAPEAAGGPSVFLFPPKPKDTLMISRTPEVTCVVVDVSHEDPEVKFNWYVDGVEVHNAKTKPREEQYASTYRVVSVLTVLHQDWLNGKEYKCKVSNKALPAPIEKTISKAKGQPREPQVYTLPPSRCELTKNQVSLSCAVKGFYPSDIAVEWESNGQPENNYKTTPPVLDSDGSFFLVSKLTVDKSRWQQGNVFSCSVMHEALHNHYTQKSLSLSPDYKDDDDK
light: DIVMTQSPLSLPVTPGEPASISCRSSQSLVHSNRNTYLHWYQQKPGQAPRLLIYKVSNRFSGVPDRFSGSGSGTDFTLKISRVEAEDVGVYYCGQGTQVPYTFGQGTKLEIKRTVAAPSVFIFPPSDEQLKSGTASVVCLLNNFYPREAKVQWKVDNALQSGNSQESVTEQDSKDSTYSLSSTLTLSKADYEKHKVYACEVTHQGLSSPVTKSFNRGEC
- Kd [2]: 42.8 nM

B3: antibody-6: anti-human CD3ε chain and anti-human GPC3 bispecific antibody (antibody)
heavy: QVQLVESGGGVVQPGRSLRLSCAASGFTFSNAWMHWVRQAPGKGLEWVANIKAKSNNYATYYAESVKGRFTISRDDSKNSLYLQMNSLKTEDTAVYYCRYVHYGAYYGVDAWGQGTTVTVSSASTKGPSVFPLAPSSKSTSGGTAALGCLVKDYFPEPVTVSWNSGALTSGVHTFPAVLQSSGLYSLSSVVTVPSSSLGTQTYICNVNHKPSNTKVDKKVEPKSCDKTHTCPPCPAPEAAGGPSVFLFPPKPKDTLMISRTPEVTCVVVDVSHEDPEVKFNWYVDGVEVHNAKTKPREEQYASTYRVVSVLTVLHQDWLNGKEYKCKVSNKALPAPIEKTISKAKGQPREPQVYTLPPSRCELTKNQVSLSCAVKGFYPSDIAVEWESNGQPENNYKTTPPVLDSDGSFFLVSKLTVDKSRWQQGNVFSCSVMHEALHNHYTQKSLSLSPDYKDDDDK
light: DIVMTQSPLSLPVTPGEPASISCRSSQSLVHSNRNTYLHWYQQKPGQAPRLLIYKVSNRFSGVPDRFSGSGSGTDFTLKISRVEAEDVGVYYCGQGTQVPYTFGQGTKLEIKRTVAAPSVFIFPPSDEQLKSGTASVVCLLNNFYPREAKVQWKVDNALQSGNSQESVTEQDSKDSTYSLSSTLTLSKADYEKHKVYACEVTHQGLSSPVTKSFNRGEC
chain 1: DIVMTQSPLSLPVTPGEPASISCRSSQSLVHSNRNTYLHWYQQKPGQAPRLLIYKVSNRFSGVPDRFSGSGSGTDFTLKISRVEAEDVGVYYCSQNTHVPPTFGQGTKLEIKSSASTKGPSVFPLAPSSKSTSGGTAALGCLVKDYFPEPVTVSWNSGALTSGVHTFPAVLQSSGLYSLSSVVTVPSSSLGTQTYICNVNHKPSNTKVDKKVEPKSCDKTHTCPPCPAPEAAGGPSVFLFPPKPKDTLMISRTPEVTCVVVDVSHEDPEVKFNWYVDGVEVHNAKTKPREEQYASTYRVVSVLTVLHQDWLNGKEYKCKVSNKALPAPIEKTISKAKGQPREPQVCTLPPSRDELTKNQVSLWCLVKGFYPSDIAVEWESNGQPENNYKTTPPVLDSDGSFFLYSKLTVDKSRWQQGNVFSCSVMHEALHNHYTQKSLSLSPHHHHHHHH
chain 2: QVQLVQSGAEVKKPGASVKVSCKASGYTFTDYEMHWIRQPPGQGLEWIGAIDPKTGDTAYSQKFKGRVTLTADKSTSTAYMELSSLTSEDTAVYYCTRFYSYTYWGQGTLVTVSSASVAAPSVFIFPPSDEQLKSGTASVVCLLNNFYPREAKVQWKVDNALQSGNSQESVTEQDSKDSTYSLSSTLTLSKADYEKHKVYACEVTHQGLSSPVTKSFNRGEC
- Kd [2]: 16.9 nM

B4: H0000/GL4: single-arm anti-GPC3 antibody, H0000 (SEQ ID NO: 40) with GL4 (SEQ ID NO: 41) (antibody, V domains shown)
VH: QVQLVQSGAEVKKPGASVKVSCKASGYTFTDYEMHWIRQPPGQGLEWIGAIDPKTGDTAYSQKFKGRVTLTADKSTSTAYMELSSLTSEDTAVYYCTRFYSYTYWGQGTLVTVSS
VL: DIVMTQSPLSLPVTPGEPASISCRSSQSLVHSNRNTYLHWYQQKPGQAPRLLIYKVSNRFSGVPDRFSGSGSGTDFTLKISRVEAEDVGVYYCSQNTHVPPTFGQGTKLEIK
modifications: An artificially generated sequence
- Affinity for human GPC3 ka (human GPC3): 430000 M⁻¹ s⁻¹
- Affinity for human GPC3 kd (human GPC3): 0.0018 s⁻¹
